From US20210301011A1, “COMPOSITION FOR PROPHYLAXIS OR TREATMENT OF IL-8 RELATED DISEASES” (CHUGAI SEIYAKU KABUSHIKI KAISHA, priority 2016, published 2021)
Values belong to the molecule of their own block, whether it stands above or below them.

Experiments:
[1] = commercially available antibodies, known values; cited from earlier work
[2] = system: pulmonary function (FEV1); details: clinical trials for COPD patients; worsened in the placebo group; cited from earlier work
neutrophil migration = details: clinical trials against cystic fibrosis; cited from earlier work
[3] = target: T1, cynomolgus monkey FcγRIIIa (Macaca fascicularis, UniProt Q8SPW2); experiment: Binding to soluble FcγR (BIACORE T200); details: 20° C., HBS-EP+
T1 construct: the soluble forms of FcγRIa and FcγRIIIa in human and cynomolgus monkey; His tag; made in house
T1 sequence (Q8SPW2 17-208 limits assumed): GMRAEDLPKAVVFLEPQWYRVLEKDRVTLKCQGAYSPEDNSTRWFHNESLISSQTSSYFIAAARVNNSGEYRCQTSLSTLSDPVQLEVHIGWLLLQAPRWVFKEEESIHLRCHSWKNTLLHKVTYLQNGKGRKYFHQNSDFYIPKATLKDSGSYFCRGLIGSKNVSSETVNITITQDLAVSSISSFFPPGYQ
Method: (§1) Soluble FcγRIa and FcγRIIIa in both human and cynomolgus monkey were produced in the form of His-tagged molecules by methods known to those of ordinary skill in the art. […] Next, soluble FcγRIa or FcγRIIIa was injected with a running buffer (used as a reference solution), and was made to interact with the antibodies captured onto the sensor chip. HBS-EP+(GE Healthcare) was used as the running buffer, and HBS-EP+ was also used to dilute the soluble FcγRIa or FcγRIIIa. […] All measurements were carried out at 20° C.

cynomolgus monkey FcγRIa = experiment: Binding to soluble FcγR (BIACORE T200); details: 20° C., HBS-EP+
Method: as §1

human FcγRIIIa = target: T2, human FcγRIIIa (Homo sapiens, UniProt P08637); experiment: Binding to soluble FcγR (BIACORE T200); details: 20° C., HBS-EP+
T2 construct: the soluble forms of FcγRIa and FcγRIIIa in human and cynomolgus monkey; His tag; made in house
T2 sequence (P08637 17-208 limits assumed): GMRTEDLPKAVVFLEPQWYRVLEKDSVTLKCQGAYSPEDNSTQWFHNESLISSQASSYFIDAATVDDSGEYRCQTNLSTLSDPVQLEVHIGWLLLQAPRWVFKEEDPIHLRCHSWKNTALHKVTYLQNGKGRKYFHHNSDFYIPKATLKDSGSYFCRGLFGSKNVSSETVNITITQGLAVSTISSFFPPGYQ
Method: as §1

human FcγRIa = target: T3, human FcγRIa (Homo sapiens, UniProt P12314); experiment: Binding to soluble FcγR (BIACORE T200); details: 20° C., HBS-EP+
T3 construct: the soluble forms of FcγRIa and FcγRIIIa in human and cynomolgus monkey; His tag; made in house
T3 sequence (P12314 16-292 limits assumed): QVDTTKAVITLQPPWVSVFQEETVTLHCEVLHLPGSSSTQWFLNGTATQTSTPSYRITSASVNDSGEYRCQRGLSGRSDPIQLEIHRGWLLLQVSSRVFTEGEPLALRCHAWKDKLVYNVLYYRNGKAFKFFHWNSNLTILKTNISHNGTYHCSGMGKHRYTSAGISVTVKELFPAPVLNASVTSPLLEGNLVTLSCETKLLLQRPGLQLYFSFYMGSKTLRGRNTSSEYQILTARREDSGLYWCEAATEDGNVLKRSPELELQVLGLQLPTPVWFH
Method: as §1

Molecule: Zenapax: commercially available antibody
frequency of ADA development in humans [1]: 14%

Molecule: Campath: commercially available antibody
frequency of ADA development in humans [1]: 45%

Molecule: CC[C@@H](Nc1c(Nc2cccc(C(=O)N(C)C)c2O)c(=O)c1=O)c1ccc(C)o1 [MK7123]
pulmonary function (FEV1) [2]: pulmonary function (FEV1) was improved in the active drug group

Molecule: O=C(Nc1ccc(Cl)c(S(=O)(=O)N2CCNCC2)c1O)Nc1cccc(F)c1Cl [Elubrixin]
topical neutrophil migration (neutrophil migration): Topical neutrophil migration was observed to be suppressed

binding to soluble cynomolgus monkey FcγRIIIa [3]: bind to all FcγRs
binding to soluble cynomolgus monkey FcγRIa (cynomolgus monkey FcγRIa): bind to all FcγRs
binding to soluble human FcγRIIIa (human FcγRIIIa): bind to all FcγRs
binding to soluble human FcγRIa (human FcγRIa): bind to all FcγRs
B1: H1009/L395-F1886m: variable region of H1009/L395 with Fc variant F1886m (antibody)
heavy: QVQLVESGGGLVQPGGSLRLSCAASGFTFSDYYLSWVRQAPGKGLEWVGLIRNKDNYHTPEYSASVKGRFTISRDDSKNSLYLTMSDLKTEDTAVYYCARENHRYDVELAYWGQGTLVTVSSASTKGPSVFPLAPSSKSTSGGTAALGCLVKDYFPEPVTVSWNSGALTSGVHTFPAVLQSSGLYSLSSVVTVPSSSLGTQTYICNVNHKPSNTKVDKKVEPKSCDKTHTCPPCPAPELLGGPSVFLFPPKPKDTLMISRTPEVTCVVVDVSHEDPEVKFNWYVDGVEVHNAKTKPREEQYNSTYRVVSVLTVLHQDWLNGKEYKCKVSNKALPAPIEKTISKAKGQPREPQVYTLPPSREEMTKNQVSLTCLVKGFYPSDIAVEWESNGQPENNYKTTPPVLDSDGSFFLYSKLTVDKSRWQQGNVFSCSVLHEALHAHTTRKELSLSP
light: DIQMTQSPSSLSASVGDRVTITCRASEIIYSYLAWYQQKPGKAPKLLIYKAKTHADGVPSRFSGSGSGTDFTFTISSLQPEDIATYYCKHHFGFPRTFGQGTKVEIKRTVAAPSVFIFPPSDEQLKSGTASVVCLLNNFYPREAKVQWKVDNALQSGNSQESVTEQDSKDSTYSLSSTLTLSKADYEKHKVYACEVTHQGLSSPVTKSFNRGEC
